Assay results reported in patent publication US20100074852A1.

Columns and labels:
[1] = biological target: human Neurokinin NK2 receptor (human) (UniProt P21452); test: radio-ligand competition binding (CEREP), second screen, reference compound; radioligand not named
[2] = biological target: human Neurokinin NK2 receptor (human) (UniProt P21452); test: radio-ligand competition binding (CEREP), reference compound, human receptor in recombinant mammalian cells; radioligand not named

Chain of human Neurokinin NK2 receptor (human) (P21452 whole entry): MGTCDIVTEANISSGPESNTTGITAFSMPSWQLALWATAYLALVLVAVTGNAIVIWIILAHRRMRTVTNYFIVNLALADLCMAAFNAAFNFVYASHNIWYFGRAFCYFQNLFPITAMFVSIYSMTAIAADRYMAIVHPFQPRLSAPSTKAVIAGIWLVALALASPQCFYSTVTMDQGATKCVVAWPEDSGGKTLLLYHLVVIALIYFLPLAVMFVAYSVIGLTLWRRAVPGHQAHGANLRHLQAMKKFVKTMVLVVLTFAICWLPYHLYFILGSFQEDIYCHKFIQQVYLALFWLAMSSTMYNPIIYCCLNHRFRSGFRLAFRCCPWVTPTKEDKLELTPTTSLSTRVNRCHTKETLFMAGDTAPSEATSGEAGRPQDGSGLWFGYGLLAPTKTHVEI

[Nle10]-NKA(4-10) (from UniProt P20366 101-107) (peptide)
IC50 [1]: 9.7 nM
IC50 [2]: 9.3 nM
